From the DeepSol protein solubility set

Assay: soluble on expression in E. coli; label from the status in PepcDB or PDB records
For “MAHHHHHHMSHEGAPQGEYVAILDAGSQYGKVIDRKVRELHVETSILSLNTPAEKLRNDANLKGIIISGGPSSVNDATSLAYDRAIFSMGKPVLGICYGMQMLTELYGGEVCRGKVREDGQDNIQVDTSSPIFAGLESTEAVLLTHGDSITAVGSELKVIARSSAGIISAVQHRSRPLFGVQFHPEVELTVSGKTIFKNFLQLCRCNFSFTMEDREAVALRLIRERTSGGQKVLCLASGGVDSTVCAVLLLKALGPERVVCIHIDHGFMRLNESVQAVEALNAAGVRVHLVKAQEDFAQASTEMTAKGSRAAYTTNKLREVTDPEEKRNIIGNTFMTVCDRVIKELQLDVENLLLAQGTLRPDLIESGSKYASVNAAAIKTHHNDTAVVRLLRDAGRIIEPLCDYHKDEVRELGARLGIPCRLLERQPFPGPGLAIRTLCTDGTPFRDGNFEDTQTTVKRVCMGADASSAEVAALAQKATLSACILPVRTVGVQGDGRTYAYAAALSMQTFPTAEQWATLIQLAKEIPKTAHAVNRVVFMFGPPQSESPSTVTPTYLTTDVLEKLRVADDKVNSILMKHQLVRSLSQVPIILIPIGFDKAGGYSVVVRTFLTNDFMTGIPATPGTAFMPLAVLEEIFNEVQKLEFVGRVMYDLTAKPPGTTEWE”, the “soluble on expression in E. coli” value was “not soluble”. With “MAHHHHHHMSITAGTLPPVKGTSVKKSPRKGRPADSMGNGTGAAADPHCYHKCRCYGHDDTLPNYKLLTIPRTNNYYAATGGCPCVPRVAAHPGSWRLKEGQLRSSTYRCGTGCIKKSAALTLGCCHHSGDQYGWRRGPHTVLDKNTAATGKCDTFGNLAFKSTSRAYCAVGGDDLSDVSSASPQKLEDLEALILEEHQQRMRVEEDVDELAGIQRNGTADWYKKIHHDAERRRLLAQISEVELQDLLRDVKNIVDRPLNQTNMDLLRRILHRQEHLQRQREYYAAQELE” the “soluble on expression in E. coli” value was “not soluble”. For “MAHHHHHHMSITSRFIGGVKHLLKGGSMKYLAAGEPYCPFGEAFGLTILPEYILEDDASNLRKGYVDVYTRASDRIILNDGRFQLPPLPPASFMPLLERLEQDNVVPKSWLNNQTANLYEPGDFIRAHIDNLFVYDDIFAICSLGSNCLLRFVHVQNGEELDVMVPDRSVYIMSGPARYVYFHMVLPVEAQRFSLVFRRSIMESDGGFRPVKTPFKEIMPYRATQILNALYSKQVGGVRVSVDDDFLESADIGAFDTSRWVKRLHPLRDWSLLRQLDEDEARVEALREKRFIDVDFSWRYRELRSYYKAMEESLVSPHVAHVTPQA”, the “soluble on expression in E. coli” value was “soluble”. In the case of “MAHHHHHHMSKADENGNELMEIEEVAVSDGGAARFAAVDVKSGEERFNVIWQDSGKLMRFDEGENQWKERGQGTAKVLQRKDNTSKYMFVFRREGVGKLAAQHYLVKGMKVTKHKQGEKILVWSAFKDFTDDEEGFPENFVMRLSSKEAADKALAEMMGAIEKSSV”, the “soluble on expression in E. coli” value is reported as “soluble”. In the case of “MAHHHHHHMSLADEVPREWASSIRPFLQRADEFQERVPVVAYFLRTHAVYLAMKMWRKEDGPGKAFIVKLLDTLESEKKRLEQELADVDGRVLLTQYALRIFSRADDEERSDGVVANMNLVRLFFTASLLFEATAQFTDDGTLDPIATEKRDYARYIAVEMKKAMDKGVPYVSPNRTGGMVESNKEHEGESTGGGGFSTNFVQSQQPGYGQWSAQYVTPQPPPPSHEPPETPMWSGPESTNTSSTQQQQQSTPLFQTTAQPNNSNDNSNIAAAVSGVAAPKGPTMDAIIEAQNYAKQAVSALQFYDHEVACKMLRSALDLLAQR”, the “soluble on expression in E. coli” value is reported as “soluble”. In the case of “MAHHHHHHMSLYQRKTILAPMVRVGNVGFRVFCAAQGADVVFTEEIVAAKLARCHREVRVHNDAAGPMIEFVAYELFKNQYKRSVVFTTPARDMANQSGEGAPVVLQLGVSDAAVGVAAALLCCEDVDGIDVNMGCPKKFSVDNGMGAALMRDTSKAASILFALDDALNAPDKLAARGRRVPLSFKIRLLETAEATADMLISIMEKVGANRVHAITLHARTVNQVAEDSPHYDRAAEAVRRLRSHPLFKEMCFVLNGSVRSRDDGAVKMAQFGFDAIMIARHAMWDMSVFSRHVSSAGGRSSLTSEDAEAPLASTSWMDLYRSLLRTHAKYCTPFTYVKYHLTRSIPCIPALRHLMTAVQQEATCYEDLAKIFSLPLEEQESMRGVAAVEMVACVPNREVTLGVVSSNAIKHNDAARSGRVRSEKSAATPAAKKPRGE”, the “soluble on expression in E. coli” value is reported as “soluble”. With “MAHHHHHHMSPLDACREQYEKDLANQTHCCMLEHVEEENRAANRKVFVRLLRYQQDINTRGTLPFEPDPTDAQKKSKGGNSAAPAYPENLTIRDPRQLKQILPIPDIHKVSDCDLIYRFLIARRMDVDLATNDILSYIGFREKYSLDTILWDREVEAVFNGLDGEELVQQVMGEMKKGATPAPKVKITRPLLQAGWAAWYCGVDKRGHVIFYQRPNPKELAMLEKRWPYIEGQYDCRNPEFHSVTPPYSNLLSRVYLREVEKGRRISRLLNYNQQYIIREGLHVQTTVKPTSTDTFMDNGGGATCLVDVGSIKLSHLTSSKCKKAFKLFRVLSLTGQSFYPENMSRMIIINGGFVFNMLFKLVRPWLDPQTQKKIVLLSATNRATLDELSSDSNLMSQSHETNDSEESDDDGTPVVGTDSERAKYALRDALAEYIHEDFIPSWYGGRLPVVDSPLFYGASPPKSLAENPQFAAACERLRARVVPQLLPDAFIFANAKEREGVGQEEWEAFCSMTERTLFRKQASTQCSSHS” the “soluble on expression in E. coli” value was “not soluble”. For “MAHHHHHHMSPVIALHEDLQKRLEEYRSTRGFSPVKWIEQKCAALNEYMASHGLKVCVTSVSGGIDSAVVLALCSRAMRMPNSPIVRNVGICQPICSSAWALARGRENIQSCGALEVIVDQTELYKQLSRIVETAVGIDGQNFARGQLRSYMRTPVAYYVAQLYSQEGNAAIVMGTGNMDEDGYLAYFCKAGDGVVDVQLISDLHKSEVFRVARELGVPANTLQASPSADLWEGQTDEEELGFPYDFVELYTGWCLQLSDEERQSFLHSLSSDARQQYEKYKDACENTHRRNAHKLRGPINL”, the “soluble on expression in E. coli” value was “soluble”. For “MAHHHHHHMSRNVAAEEEWEDVDAPNEEDEEEEDTTINNSDVMMRYKKAALWCNETLQLLLDATKPGAKVHELCKLGDETVAKKLKTMFKGTEKGLAFPTCISVNSCVAHNSPSADDEVASQEIQLGDVVHIDLGIHVDGYCAQVAHTVQVTENNELAADDDASKVISATYGILNTAMRKMRPGVSVYEVTEVIEKAAAHYGVTPVDGVLSHMLKRYIVDSFRCVPQRKVAEHLVHDYTLEAGQVWTLDIVMSSGKGKLKERDVRPTVYKVALDSNYTMKMESARELQREIEAKYQTFPFALRNLETKRARLGLSEMLKHGAVVPYPVLYERDGEVVGHFKITLLITAKKIEPVTGLKPQKAPTLPAYTDELLLEASKLPLTLEKKRKN”, the “soluble on expression in E. coli” value was “not soluble”. With “MAHHHHHHMSRTLTTTQPSVASSPASSSSGSTHQRPSADQLAETVHQMDEENALEFVSIDATSRDQVFHFLHDHPDATAVVNAVGLLTRNYEDARQVNGDVMTNIAAGVFHPKLAQSVQKVVYVSAEPYNLYSRRILGSKHLLKGYFHGKRIGEKAVLENLGNKGVVLRPSFIYGTRHVLVASAMNPDAVSTLSLPLGWIGLPLDKLLTAIGGGKLLMPPVCVDVVAEAAVRACAWANQPGKDIHGICDVYRMRDICNAVDPSLHEDRNGTVTASTASKEASTVKNDR” the “soluble on expression in E. coli” value was “not soluble”. With “MAHHHHHHMSSASIVALSLSLSFSLGLLRSLGSARHIRYGHPHTNTSAYGGRHPRMQVMAAAARTYRHIVARELSTNFRAVASIVEAPFPTVLHPKAILVKNKYLGVNASDINFTAGIYQPDVRPPFACGFEAVGEVVDVGSGVKDLKAGAAVVTQSYGAFAEYQVVARRHAKPIPRVAREYLPLDLSATTASIALEHVLKPQPGERAVVTAAAGGTGQFAVQLLKHVYGCSVVGTCSSPSKEVFLTNTLKCDGVVNYKAEGGDTAAAFLRCYPRGVNIAYESVGGDLLEAVIQSLAPRGRILSLGCVSTYQCGSIEAACPSRKPLPLQLLAKSASLSTFFLPHFAKYGQLHFDRLCALHEQGLVQCCIDPTTFEGLEGVYDAIDWMFEQKNCGKVMVEL” the “soluble on expression in E. coli” value was “not soluble”. In the case of “MAHHHHHHMSSSSSALDVPLVEVICSYPTREGLCAECPALLLLVYEHVVAELQAGRRAVDVFRGTSRQDHLSELLAVRSLSELFERLYPLSQSCILDESTASSQFWRQARVTLEAAWAAPHDAKGRALLTQVRGQPRFHFCGPRDVETPGEGYPLHPVSLERALATSKRFLRTAMTCALDGSTDALAGRQPELRAVLQLAHLVPLTPSTGAPPRKEVTPEGLSFCMVSLQQRWWILVNAALERVLLLTRAAVNGNGNTSGSSGVTKPLLWQLLAVLSVLDTTQYVFAFPERQQDLAAHHLLARLSEVGLVYPLLSNDRKCFVLSPDFLHAIHWHASAPLSLTFNHHLLRSASGVSGAGIGDLRREDTDTIITETNFRLFAYTNDADLLNILNQFAELEEIVNGNLHCYRVTRASFAAAMRKGITAAQVLRFLSLRAHPSMLRRHGEREENGDTASPSSAGGASSSFTFSASPRRGAVAGTCGSTTSIDAVSTLVVPQSFCDQMRMWESECRRVVFEHHVVLLRNMSTQQQKAVTAYLTDAGEVDAVVHAERGYMVIREEVFERLVAPLLG”, the “soluble on expression in E. coli” value is reported as “not soluble”. With “MAHHHHHHMSSSVKDILLEGSTCSTDMKLNDFLRSKLGGRGVVDTNEKVAMEMFVQDPETFIQNERLLRIITASPSYQELERELDEMKILLEAINKLHDEDVFSLEQWRGYEGKDTVTPLARGKINGVLTHVLREERRWAEERAVREKQVELTLTTTIEDVLFRGRVRVKDMKLNDFITMEMEGRGILRANRNVLLKEFFKDPTRYIHDAGVLNEIQASDAYLMAERAVRDEMDMEKDLRKLYKNGVSNLFGWSVASAEIRASVRDITKSFLDAALEEARKPTTTIAPIKMEGLYESVYNARWHHVVEVPGGEGTGMEVKKGRPPQQWTYKKVGYCLERDDGAEQYGAARLRLMVLASDKGRAVLVGGD” the “soluble on expression in E. coli” value was “not soluble”. With “MAHHHHHHMSSSVQNHQQTLLQARTHVAARDTTAVAILGAKAGSNGSSQSFRPAAQCLEHTQSSFNQTDISQRPPFIASEAATVSLLRRMEVLDNGRAGSTSDNAAANVVPSHQSVQRQRVTAHTLNKTTLANNDVTGEAPKPPSMAESTLKAGAQRRRIVKSNRNAVASRGPSESLKKCGPAVNVNDDGHRNDSAMAMNVPTQITVAARGGARGRVFHSNPFVTRNGKRFSAQNARRGISTATLSPPHTAITVSDDYSADFSVHDAFDVLSPMTPANPTYQKTLQVQQQQQWHSGSWIYDLNAGANTDSFTDDGSPIEFVVEDFELDDTVLGGTKHNDFGGQASKGGPDRFSTAAASNPDRLRQQNHARWAASRGPTRGATLASGTTATQQAGGARHLTTKSTMGSDPAGPDSPSGVLKERARLAKGVKLHNGPPMIKIPPLALDVINANRKTGKASYKVSHPKPGVVVPDIESSSTECSDMPNNSSLQGNFEALGVKVSNSPLGGRGSIEGRGNDKRVGGVHNGSLLSGSAVDGHRAGAAGSSAYKGSLQNCGRHGMLSMPFDGTSNDSQVHEASPSRNAREGFRGNSGGFGMHGGPFGSVQRQRWLVEADKHSSGESRPPMTNARKKAKCCVVM” the “soluble on expression in E. coli” value was “not soluble”. In the case of “MAHHHHHHMSSTNPSGCAGLVAASVTTAASTGTTAAATLAARSPTPPSVPASNSNNSGPGAAVASAPARWRIPSFRPQEYLRGYLFGGVGMGVPELQQYVGKVEPMIREMLEHTQQVHSIHSLRSHFQKSDEPGDEEVVLRWPSHLLQFMEFYNTTRALEDPENQDAGVKEAYLGLMRRLYYTEPRRRDCIPTKYLDPRSLLLVRMWWSMDAAQRKQWPLSLMDHKALNVIQIKDRYLCSYVMTAMQAKQYLMRLVARPEMRAMIDQWRRERNDGSTGAGSPQRSKL”, the “soluble on expression in E. coli” value is reported as “soluble”. For “MAHHHHHHMSTKLEQENCKLLENIEVISTWSSNNDSNMESFVEPSELDIKDDNEKCLNILNDNLIYDFEKEEDEKKKKNKKNEKSSSNIDLEYDTMKKYIKCIIHNKEKEEFYSFMKYICDSDLFLTFVQLFLDLIKNKDSNLNPHDYLINFFQINIEEENNTNSIKRKNLIKENNFYKKQNEELKKQINIIQVEIMDMKKKNMCNYITNFFFKDNKQEYDASKIFQKVNLYYENIRIEPPFYFTKDTFNLFINYLSDNKRNYIYNIITDMYNIYETNHTLFITKFYKKLTNFIEFYRSFDK”, the “soluble on expression in E. coli” value was “not soluble”.
